{"source": "the supplement of paper PMC10126150", "note": "± gives the standard deviation of the averaged measurements.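 Note: ATP exposure 15 min at 22 °C before imaging.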", "data": [{"test_system": "ATP", "experiment": "switch fluorescence ratio, 500 uM ATP over buffer (Cy3 cluster intensity, sum of 5 cycles each) (fold (ratio)); higher = stronger signal-on switching upon ATP binding; sequences stand for … in TCGTCGGCAGCGTCAGATGTGTATAAGAGACAGTTTTTTTTTTTTTTTTTTTTTTTTT…TC", "conditions": "aptamer strand: ATP DNA aptamer (quencher-CACCTGGGGGAGTATTGCGGAGGAAGG + anchor), 100 nM annealed; ATP concentration: 500 uM", "in_short": "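Switching-strand clusters labelled with Cy3 on a modified Illumina MiSeq flow-cell were annealed to 100 nM quencher-labelled ATP aptamer, imaged in selection buffer, and re-imaged after 15 min with 500 uM ATP at 22 °C. This was done over five cycles with NaOH stripping and re-annealing in between. The fluorescence ratio is summed target-cycle over summed buffer-cycle Cy3 intensity per cluster, averaged per switch-domain sequence, excluding clusters outside 100-1000 RFU.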", "values": [{"sequence": "TTTGCAGACA", "switch fluorescence ratio": "1.01 ± 0.027"}, {"sequence": "TTTGCAGGGG", "switch fluorescence ratio": "1.06 ± 0.1"}, {"sequence": "TTTGCAGTTT", "switch fluorescence ratio": "0.997 ± 0.024"}, {"sequence": "TTTGCATGCT", "switch fluorescence ratio": "1.024 ± 0.0036"}, {"sequence": "TTTGCATTAG", "switch fluorescence ratio": "1.11 ± 0.028"}, {"sequence": "TTTGCATTCA", "switch fluorescence ratio": "0.999 ± 0.038"}, {"sequence": "TTTGCCAGAC", "switch fluorescence ratio": "1.23 ± 0.24"}, {"sequence": "TTTGCCCTTT", "switch fluorescence ratio": "1.24 ± 0.32"}, {"sequence": "TTTGCCGCGT", "switch fluorescence ratio": "1.03 ± 0.012"}, {"sequence": "TTTGCCTGAC", "switch fluorescence ratio": "1.57 ± 0.37"}, {"sequence": "TTTGCGAGAG", "switch fluorescence ratio": "1.01 ± 0.045"}, {"sequence": "TTTGCGATTT", "switch fluorescence ratio": "1.15 ± 0.14"}, {"sequence": "TTTGCGGCGT", "switch fluorescence ratio": "0.986 ± 0.022"}, {"sequence": "TTTGCGGTTT", "switch fluorescence ratio": "1.02 ± 0.046"}, {"sequence": "TTTGCGTTGT", "switch fluorescence ratio": "1.022 ± 0.0061"}, {"sequence": "TTTGCTCAGG", "switch fluorescence ratio": "1.09 ± 0.037"}, {"sequence": "TTTGCTGGAT", "switch fluorescence ratio": "1.08 ± 0.046"}, {"sequence": "TTTGCTTTCC", "switch fluorescence ratio": "1.2 ± 0.17"}, {"sequence": "TTTGCTTTGT", "switch fluorescence ratio": "1.01 ± 0.023"}, {"sequence": "TTTGGAACAT", "switch fluorescence ratio": "1.01 ± 0.042"}, {"sequence": "TTTGGAATTG", "switch fluorescence ratio": "0.988 ± 0.016"}, {"sequence": "TTTGGAATTT", "switch fluorescence ratio": "1.06 ± 0.1"}, {"sequence": "TTTGGACAAG", "switch fluorescence ratio": "1 ± 0.061"}, {"sequence": "TTTGGACTGG", "switch fluorescence ratio": "1.01 ± 0.067"}, {"sequence": "TTTGGACTGT", "switch fluorescence ratio": "0.988 ± 0.019"}, {"sequence": "TTTGGAGACT", "switch fluorescence ratio": "1.03 ± 0.02"}, {"sequence": "TTTGGATGTG", "switch fluorescence ratio": "0.984 ± 0.032"}, {"sequence": "TTTGGCACGC", "switch fluorescence ratio": "1.11 ± 0.04"}, {"sequence": "TTTGGCAGGT", "switch fluorescence ratio": "1.03 ± 0.026"}, {"sequence": "TTTGGCATTA", "switch fluorescence ratio": "1.09 ± 0.1"}, {"sequence": "TTTGGCCCCG", "switch fluorescence ratio": "0.9612 ± 0.0093"}, {"sequence": "TTTGGCTCTG", "switch fluorescence ratio": "1.03 ± 0.025"}, {"sequence": "TTTGGCTTGT", "switch fluorescence ratio": "0.9714 ± 0.0068"}, {"sequence": "TTTGGGAA", "switch fluorescence ratio": "1.03 ± 0.015"}, {"sequence": "TTTGGGAAAT", "switch fluorescence ratio": "1.07 ± 0.1"}, {"sequence": "TTTGGGAAGC", "switch fluorescence ratio": "1.02 ± 0.033"}, {"sequence": "TTTGGGAGCA", "switch fluorescence ratio": "0.9882 ± 0.0022"}, {"sequence": "TTTGGGAGGT", "switch fluorescence ratio": "0.99 ± 0.063"}, {"sequence": "TTTGGGCAAG", "switch fluorescence ratio": "1.06 ± 0.043"}, {"sequence": "TTTGGGCACT", "switch fluorescence ratio": "0.996 ± 0.024"}, {"sequence": "TTTGGGCCGA", "switch fluorescence ratio": "0.987 ± 0.028"}, {"sequence": "TTTGGGCCTC", "switch fluorescence ratio": "0.9842 ± 0.0021"}, {"sequence": "TTTGGGCCTT", "switch fluorescence ratio": "1.02 ± 0.034"}, {"sequence": "TTTGGGCGAA", "switch fluorescence ratio": "1.002 ± 0.0068"}, {"sequence": "TTTGGGCTTG", "switch fluorescence ratio": "1.013 ± 0.0054"}, {"sequence": "TTTGGGGAAA", "switch fluorescence ratio": "1.16 ± 0.42"}, {"sequence": "TTTGGGGACA", "switch fluorescence ratio": "1.01 ± 0.019"}, {"sequence": "TTTGGGGGTT", "switch fluorescence ratio": "1.01 ± 0.039"}, {"sequence": "TTTGGGTAAT", "switch fluorescence ratio": "1.21 ± 0.39"}, {"sequence": "TTTGGGTGAG", "switch fluorescence ratio": "0.993 ± 0.023"}, {"sequence": "TTTGGGTGAT", "switch fluorescence ratio": "1.02 ± 0.022"}, {"sequence": "TTTGGGTTTT", "switch fluorescence ratio": "1.01 ± 0.054"}, {"sequence": "TTTGGTAAAA", "switch fluorescence ratio": "1.01 ± 0.037"}, {"sequence": "TTTGGTAAGC", "switch fluorescence ratio": "1.02 ± 0.036"}, {"sequence": "TTTGGTACCC", "switch fluorescence ratio": "1.01 ± 0.029"}, {"sequence": "TTTGGTCAGA", "switch fluorescence ratio": "0.973 ± 0.049"}, {"sequence": "TTTGGTCGGA", "switch fluorescence ratio": "1.019 ± 0.0039"}, {"sequence": "TTTGGTCGGT", "switch fluorescence ratio": "0.986 ± 0.081"}, {"sequence": "TTTGGTCTTT", "switch fluorescence ratio": "1 ± 0.02"}, {"sequence": "TTTGGTGATA", "switch fluorescence ratio": "0.943 ± 0.01"}, {"sequence": "TTTGGTGGGG", "switch fluorescence ratio": "1.01 ± 0.029"}, {"sequence": "TTTGGTGTGC", "switch fluorescence ratio": "1.01 ± 0.022"}, {"sequence": "TTTGGTGTTA", "switch fluorescence ratio": "1 ± 0.026"}, {"sequence": "TTTGGTTAGC", "switch fluorescence ratio": "1.01 ± 0.02"}, {"sequence": "TTTGGTTAGG", "switch fluorescence ratio": "0.985 ± 0.019"}, {"sequence": "TTTGGTTATT", "switch fluorescence ratio": "1 ± 0.04"}, {"sequence": "TTTGGTTGCT", "switch fluorescence ratio": "0.991 ± 0.028"}, {"sequence": "TTTGGTTTAG", "switch fluorescence ratio": "1 ± 0.015"}, {"sequence": "TTTGGTTTTA", "switch fluorescence ratio": "1.004 ± 0.0077"}, {"sequence": "TTTGTAAAGT", "switch fluorescence ratio": "0.976 ± 0.019"}, {"sequence": "TTTGTAAGGC", "switch fluorescence ratio": "1.08 ± 0.13"}, {"sequence": "TTTGTAGGCG", "switch fluorescence ratio": "0.983 ± 0.13"}, {"sequence": "TTTGTATAAC", "switch fluorescence ratio": "1.01 ± 0.012"}, {"sequence": "TTTGTATTCC", "switch fluorescence ratio": "0.991 ± 0.1"}, {"sequence": "TTTGTCAAAA", "switch fluorescence ratio": "1 ± 0.025"}, {"sequence": "TTTGTCAGTT", "switch fluorescence ratio": "0.956 ± 0.043"}, {"sequence": "TTTGTCATGT", "switch fluorescence ratio": "0.976 ± 0.036"}, {"sequence": "TTTGTCCGGT", "switch fluorescence ratio": "0.971 ± 0.018"}, {"sequence": "TTTGTGCAGG", "switch fluorescence ratio": "1.04 ± 0.046"}, {"sequence": "TTTGTGCCGG", "switch fluorescence ratio": "1.012 ± 0.007"}, {"sequence": "TTTGTGGAGC", "switch fluorescence ratio": "1.04 ± 0.071"}, {"sequence": "TTTGTGGAGG", "switch fluorescence ratio": "0.999 ± 0.023"}, {"sequence": "TTTGTGGGAC", "switch fluorescence ratio": "1.11 ± 0.066"}, {"sequence": "TTTGTGGGGA", "switch fluorescence ratio": "1 ± 0.026"}, {"sequence": "TTTGTGGGTT", "switch fluorescence ratio": "0.997 ± 0.025"}, {"sequence": "TTTGTGTAGT", "switch fluorescence ratio": "0.986 ± 0.065"}, {"sequence": "TTTGTGTCAC", "switch fluorescence ratio": "0.984 ± 0.034"}, {"sequence": "TTTGTGTCTT", "switch fluorescence ratio": "0.967 ± 0.024"}, {"sequence": "TTTGTGTGGC", "switch fluorescence ratio": "0.99 ± 0.084"}, {"sequence": "TTTGTTAAGG", "switch fluorescence ratio": "1.01 ± 0.019"}, {"sequence": "TTTGTTAAGT", "switch fluorescence ratio": "1.01 ± 0.05"}, {"sequence": "TTTGTTAATT", "switch fluorescence ratio": "0.996 ± 0.039"}, {"sequence": "TTTGTTAGC", "switch fluorescence ratio": "1.03 ± 0.019"}, {"sequence": "TTTGTTATGC", "switch fluorescence ratio": "1.03 ± 0.032"}, {"sequence": "TTTGTTGAC", "switch fluorescence ratio": "0.998 ± 0.024"}, {"sequence": "TTTGTTGGAA", "switch fluorescence ratio": "0.99 ± 0.025"}, {"sequence": "TTTGTTGGCT", "switch fluorescence ratio": "0.972 ± 0.058"}, {"sequence": "TTTGTTGGGG", "switch fluorescence ratio": "1.02 ± 0.011"}, {"sequence": "TTTGTTGTAT", "switch fluorescence ratio": "1 ± 0.032"}, {"sequence": "TTTGTTGTTA", "switch fluorescence ratio": "0.994 ± 0.031"}]}]}
